The chains are these.
B1: Round 2 CD28H6-6 (ligand)
chain: ITPKSVTKRVKETVMLSCDYSTSTEELTSLRIYWQKDSKMVLAILPGKVQVWPEYKNRTITDMNDNPRIVILALRLSDSGTYTCVIQKPVLKGAYKLEHLASVRLMIRADFPVPTINDLGNPSPNIRRLICSGFPRPHLYWLENGEELNATNTTVSQDPGTELYMISSELDFNVTNNHSIVCLIKYGELSVSQIFPWSKPKQEPPIDQLPFWVIIPVSGALVLTAVVLYCLACRHVARWKRTRRNEETVGTERLSPIYLGSAQSSG
B2: Round 2 CD28D12-5 (ligand)
chain: ITPKSVTKRVKETVMLSCDYSTSTEELTSLRIYWQKDSKMVLAILPGKVQVWPEYKNRTITDMNDNPRIVILALRLSDSGTYTCVIQKPVLKGAYKLEHLASVRLMIRADFPVPSITDIGHPAPNVKRIRCSASGDFPEPRLAWMEDGEELNAVNTTVLDTELYSVSSELDFNVTNNHSIVCLIKYGELSVSQIFPWSKPKQEPPIDQLPFWVIIPVSGALVLTAVVLYCLACRHVARWKRTRRNEETVGTERLSPIYLGSAQPSG
B3: Round 2 CD28C7-3 (ligand)
chain: ITPKSVTKRVKETVMLSCDYSTSTEELTSLRIYWQKDSKMVLAILPGKVQVWPEYKNRTITDMNDNPRIVILALRLSDSGTYTCVIQKPDLKGAYKLEHLTSVRLMIRADFPVPSITDIGHPAPNVKRIRCSASGDFPEPRLAWMEDGEELNAVNTTVDQDLDTELYSVSSELDFNVTNNHSIVCLIKYGELSVSQIFPWSKPKQEPPIDQLPFWVIIPVSGALVLTAVVLYCLACRHVARWKRTRRNEETVGTERLSPIYLGSAQSSG
B4: Round 2 CD28G1-9 (ligand)
chain: ITPKSVTKRVKETVMLSCDYNTSTEELTSLRIYWQKDSKMVLAILPGKVQVWPEYKNRTITDMNDNPRIVILALRLSDSGTYTCVIQKPVLKGAYKLEHLTSVRLMIRADFPVPSITDIGHPAPNVKRIRCSASGGFPEPRLAWMEDGEELNAVNTTVDQDLDTELYSVSSELDFNVTNNHSIVCLIKYGELSVSQIFPWSKPKQEPPIDQLPFWVIIPVSGALVLTAVVLYCLACRHVARWKRTRRNEETVGTERLSPIYLGSAQSSG
B5: Round 2 CD28F12-5* (ligand)
chain: ITPKSVTKRVKETVMLSCDYNTSTEELTSLRIYWQKDSKMVLAILPGKVQVWPEYKNRTITDMNDNPRIVILALRLSDSGTYTCVIQKPDLKGAYKLEHLASVRLMIRADFPVPSITDIGHPAPNVKRIRCSASGDFPEPRLAWMEDGEELNAVNTTVDQDLDTELYSVSSELDFNVTNNHSIVCLIKYGELSVSQIFPWSKPKQEPPIDQLPFWVIIPVSGALVLTAVVLYCLACRHVARWKRTRRNEETVGTERLSPIYLGSAQSSG
B6: Round 2 CD28F10-2 (ligand)
chain: ITPKSVTKRVKETVMLSCDYNTSTEELTSLRIYWQKDSKMVLAILPGKVQVWPEYKNRTITDMNDNPRIVILALRLSDSGTYTCVIQKPDLKGAYKLEHLTSVRLMIRADFPVPSITDIGHPAPNVKRIRCSASGDFPEPRLAWMEDGEELNAVNTTVDQDLDTELYSVSSELDFNVTNNHSIVCLIKYGELSVSQIFPWSKPKQEPPIDQLPFWVIIPVSGALVLTAVVLYCLACRHVARWKRTRRNEETVGTERLSPIYLGSAQSSG
B7: Round 2 CD28B6-6 (ligand)
chain: ITPKSVTKRVKETVMLSCDYSTSTEELTSLRIYWQKDSKMVLAILPGKVQVWPEYKNRTITDMNDNPRIVILALRLSDKGTYTCVIQKPVLKGAYKLEHLTSVTLSIRADFPVPSITDIGHPAPNVKRIRCSASGGFPEPRLAWMEDGEELNAVNTTVDQDLDTELYSVSSELDFNATNNHSIVCLIKYGELSVSQIFPWSKPKQEPPIDQLPFWVIVPVSGALVLTAVVLYCLACRHVAR
B8: Round 2 CD28A2-5 (ligand)
chain: ITPKSVTKRVKETVMLSCDYNTSTEELTSLRIYWQKDSKMVLAILPGKVQVWPEYKNRTITDMNDNPRIVILALRLSDSGTYTCVIQKPDLKGAYKLEHLASVRLMIRADFPVPSITDIGHPAPNVKRIRCSASGGFPEPRLAWMEDGEELNAVNTTVDQDLDTELYSVSSELDFNMTSNHSFLCLVKYGDLTVSQTFYWQESKPTPSANQHLTWTIIIPVSAFGISVIIAVILTCLTCRNAAIRRQRRENEGKCKVLSVSIGTKLKFNR
B9: Round 2 CD28C2-4 (ligand)
chain: GISQVTKSVKEMAALSCDYNISIDELARMRIYWQKDQQMVLSIISGQVEVWPEYKNRTITDMNDNPRIVILALRLSDSGTYTCVIQKPVLKGAYKPEHLASVRLMIRADFPVPTINDLGNPSPNIRRLICSTSGGFPRPHLYWLENGEELNATNTTLSQDPETKLYMISSELDFNMTSNHSFLCLVKYGDLTVSQTFYWQESKPTPSANQHLTWTIIIPVSAFGISVIIAVILTCLTCRNAAIRRQRRENEVEMQSCSQSP
B10: Round 2 CD28D2-3 (ligand)
chain: ITPKSVTKRVKETVMLSCDYNTSTEELTSLRIYWQKDSKMVLAILPGKVQVWPEYKNRTITDMNDNPRIVIQALRLSDSGTYTCVIQKPVLKGAYKLEHLASVRLMIRADFPVPTDLGNPSPNIRRLICSTSGGFPRPHLYWLENGEELNATNTTVSQDPGTELYMISSELDFNVTNNHSIVCLIKYGELSVSQIFPWSKPKQEPPIDQLPFWVIIPVSGALVLTAVVLYCLACRHVARWKRTRRNEETVGTERLSPIYLGSAQSSG
B11: Round 2 CD28D11-1 (ligand)
chain: ITPKSVTKRVKETVMLSCDYNTSTEELTSLRIYWQKDSKMVLAILPGKVQVWPEYKNRTITDMNDNPRIVILALRLSDSGTYTCVVQKNENGSFRREHLTSVTLSIRADFPVPSITDIGHPAPNVKRIRCSASGDFPEPRLAWMEDGEELNAVNTTVDQDLDTELYSVSSELDFNVTNNHSIVCLIKYGELSVSQIFPWSKPKQEPPIDQLPFWVIILVSGALVLTAVVLYCLACRHVARWKRTRRNEETVGTERLSPIYLGSAQSSG
B12: Round 2 CD28B4-5* (ligand)
chain: SGITPKSVTKRVKETVMLSCDYNTSTEELTSLRIYWQKDSKMVLAILPGKVQVWPEYKNRTITDMNDNPRIVILALRLSDKGTYTCVVQKPDLKGAYKLEHLASVRLMIRADFPVPSITDIGHPAPNVKRIRCSASGGFPEPRLAWMEDGEELNAVNTTVDQDLDTELYSVSSELDFNVTNNHSIVCLIKYGELSVSQIFPWSKPKQEPPIDQLPFWVIIPVSGALVLTAVVLYCLACRHVARWKRTRRNEETVGTERLSPIYLGSAQSSG
B13: Round 2 CD28B4-3 (ligand)
chain: ITPKSVTKRVKETVMLSCDYNTSTEELTSLRIYWQKDSKMVLAILPGKVQVWPEYKNRTITDMNDNPRIVILALRLSDSGTYTCVIQKPVLKGAYKLEHLTSVRLMIRADFPVPTINDLGNPSPNIRRLICSTSGGFPRPHLYWLENGEELNATNTTLSQDPETKLYMISSELDFNMTSNHSFLCLVKYGDLTVSQTFYWQESKPTPSANQHLTWTIIIPVSAFGISVIIAVILTCLTCRNAAIRRQRRENEVEMQSCSQSP
B14: Round 2 CD28B6-3 (ligand)
chain: ITPKSVTKRVKETVMLSCDYNTSTEELTSLRIYWQKDSKMVLAILPGKVQVWPEYKNRTITDMNDNPRIVILALRLSDSGTYTCVIQKPDLKGAYKLEHLTSVRLMIRADFPVPTINDLGNPSPNIRRLICSTSGGFPRPHLYWLENGEELNATNTTLSQDPETKLYMISSELDFNMTSNHSFLCLVKYGDLTVSQTFYWQESKPTPSANQHLTWTIIIPVSAFGISVIIAVILTCLTCRNAAIRRQRRENEVKMQSCSQSP
B15: Round 2 CD28E8-6 (ligand)
chain: ITPKSVTKRVKETVMLSCDYNTSTEELTSLRIYWQKDSKMVLAILPGKVQVWPEYKNRTITDMNDNPRIVILALRLSDSGTYTCVIQKPVLKGAYKLEHLTSVRLMIRADFPVPTINDLGNPSPNIRRLICSTSGGFPRPHLYWLENGEELNATNTTVSQDPETKLYMISSELDFNTTSNHSFLCLVKYGDLTVSQTFYWQESKPTPSANQHLTWTIIIPVSAFGISVIIAVILTCLTCRNAAIRRQRRENEVEMQSCSQSP
B16: Round 2 CD28D5-6 (ligand)
chain: ITPKSVTKRVKETVMLSCDYSTSTEELTSLRIYWQKDSKMVLAILPGKVQVWPEYKNRTITDMNDNPRIVILALRLSDSGTYTCVIQKPVLKGAYKLEHLTSVRLMIRADFPVPTINDLGNPSPNIRRLICSTSGGFPRPHLYWLENGEELNATNTTLSQDPETKLYMISSELDFNMTSNHSFLCLVKYGDLTVSQSFYWQESKPTPSANQHLTWTIIIPVSAFGISVIIAVILTCLTCRNAAIRRQRRENEVEMQSCSQSP
B17: Round 2 CD28E2-5* (ligand)
chain: TTPKSVTKRVKETVMLSCDYNTSTEELTSLRIYWQKDSKMVLAILPGKVQVWPEYKNRTITDMNDNPRIVILALRPSDSGTYTCVIQKPVLKGAYKLEHLASVRLMIRADFPVPTINDLGNPSPNIRRLICSTSGGFPRPHLYWLENGEELNATNTTLSQDPETKLYMISSELDFNMTSNHSFLCLVKYGDLTVSQTFYWQESKPTPSANQHLTWTIIIPVSAFGISVIIAVILTCLTCRNAAIRRQRRENEVEMQSCSQSP
B18: Round 2 CD28F3-1 (ligand)
chain: ITPKSVTKRVKETVMLSCDYNTSTEELTSLRIYWQKDSKMVLAILPGKVQVWPEYKNRTITDMNDNPRIVILALRLSDSGTYTCVIQKPDLKGAYKLEHLTSVRLMIRADFPVPTINDLGNPSPNIRRLICSTSGGFPRPHLYWLENGKELNATNTTLSQDPETKLYMISSELDFNMTSNHSFLCLVKYGDLTVSQTFYWQESKPTPSANQHLTWTIIIPVSAFGISVIIAVILTCLTCRNAAIRRQRRENEVEMQSCSQSP

The experiment addresses T1, Soluble CD28-Ig (extracellular domain of human CD28 fused to the Fc portion of human IgG1) (human, UniProt P10747 19-152, biotin-conjugated (NHS-biotin) in the FACS binding assays).
T1 construct: extracellular domain; bought from R&D Systems; also called sCD28-Ig; CD28-Ig Fc; not shown: Fc portion of human IgG1
Briefly: competitive FACS on transfected cells, biotin-sCD28-Ig with FITC-sCTLA-4-Ig; grade 0-2 of CD28/CTLA-4 ratio vs WT hB7-1.
For the molecule B1, the “Binding Score” value is 1. As for B2, the figure is 2. Consider B3, for which the “Binding Score” value came out at 1. As for B4, the figure is 1. In the case of B5 it was 1; in that of B6, 1; in that of B7, 1. In the case of B8 it was 0; in that of B9, 1. B10: the “Binding Score” value turned out to be 1. For the molecule B11, the “Binding Score” value came out at 2.

For the molecule B12, the “Binding Score” value came out at 0. In the case of B13 it was 1; in that of B14, 1. As for B15, the figure is 0; as for B16, 0. As for B17, the figure is 0.

For the molecule B18, the “Binding Score” value was determined as 0.
